Data published in paper PMC8844825 (iScience, 2022).

Target: T1, myc-WT CARD11-FLAGx2 (murine, UniProt Q8CIS0 1-1159)
T1 sequence (looked up): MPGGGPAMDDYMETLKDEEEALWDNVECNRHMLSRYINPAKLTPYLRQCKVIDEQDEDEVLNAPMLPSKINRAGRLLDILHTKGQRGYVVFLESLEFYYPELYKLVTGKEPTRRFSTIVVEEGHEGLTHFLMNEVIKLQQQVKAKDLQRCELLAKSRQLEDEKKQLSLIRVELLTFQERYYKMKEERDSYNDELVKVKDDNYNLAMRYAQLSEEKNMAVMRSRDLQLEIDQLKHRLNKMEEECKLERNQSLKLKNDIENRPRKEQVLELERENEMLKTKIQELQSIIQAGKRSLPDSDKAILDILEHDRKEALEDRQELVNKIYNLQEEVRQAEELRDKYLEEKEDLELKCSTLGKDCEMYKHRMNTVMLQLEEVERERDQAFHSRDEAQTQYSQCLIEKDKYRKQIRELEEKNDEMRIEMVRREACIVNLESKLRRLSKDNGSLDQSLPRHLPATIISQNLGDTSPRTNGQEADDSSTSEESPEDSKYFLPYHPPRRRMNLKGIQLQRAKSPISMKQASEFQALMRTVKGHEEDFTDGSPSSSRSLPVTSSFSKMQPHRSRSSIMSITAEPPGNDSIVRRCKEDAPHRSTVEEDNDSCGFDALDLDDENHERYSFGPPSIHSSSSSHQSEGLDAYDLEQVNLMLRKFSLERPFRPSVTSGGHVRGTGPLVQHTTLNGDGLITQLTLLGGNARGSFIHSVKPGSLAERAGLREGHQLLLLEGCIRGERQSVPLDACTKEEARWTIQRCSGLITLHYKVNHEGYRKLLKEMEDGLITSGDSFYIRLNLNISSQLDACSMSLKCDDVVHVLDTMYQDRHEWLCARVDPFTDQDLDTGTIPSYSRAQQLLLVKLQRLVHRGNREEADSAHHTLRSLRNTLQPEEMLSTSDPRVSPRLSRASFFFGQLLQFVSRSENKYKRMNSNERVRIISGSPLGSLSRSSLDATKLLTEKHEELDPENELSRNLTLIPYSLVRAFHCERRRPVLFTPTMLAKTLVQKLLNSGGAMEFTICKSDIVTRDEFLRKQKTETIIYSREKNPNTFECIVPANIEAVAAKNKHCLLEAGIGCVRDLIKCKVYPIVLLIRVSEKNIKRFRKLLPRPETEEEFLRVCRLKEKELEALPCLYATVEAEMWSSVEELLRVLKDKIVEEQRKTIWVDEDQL
Experiment: co-IP

B1: Bcl10 (endogenous, Jurkat T cells) (natural protein, human (endogenous in Jurkat), UniProt O95999 1-233, looked up)
chain: MEPTAPSLTEEDLTEVKKDALENLRVYLCEKIIAERHFDHLRAKKILSREDTEEISCRTSSRKRAGKLLDYLQENPKGLDTLVESIRREKTQNFLIQKITDEVLKLRNIKLEHLKGLKCSSCEPFPDGATNNLSRSNSDESNFSEKLRASTVMYHPEGESSTTPFFSTNSSLNLPVLEVGRTENTIFSSTTLPRPGDPGAPPLPPDLQLEEEGTCANSSEMFLPLRSRTVSRQ
**Q.** With B1 as the binder, how does the “relative inducible binding (bound/input, normalised to WT)” value read?
**A.** 1 relative to WT

B2: HOIP (endogenous, Jurkat T cells) (natural protein, human (endogenous in Jurkat), UniProt Q96EP0 1-1072, looked up)
chain: MPGEEEERAFLVAREELASALRRDSGQAFSLEQLRPLLASSLPLAARYLQLDAARLVRCNAHGEPRNYLNTLSTALNILEKYGRNLLSPQRPRYWRGVKFNNPVFRSTVDAVQGGRDVLRLYGYTEEQPDGLSFPEGQEEPDEHQVATVTLEVLLLRTELSLLLQNTHPRQQALEQLLEDKVEDDMLQLSEFDPLLREIAPGPLTTPSVPGSTPGPCFLCGSAPGTLHCPSCKQALCPACDHLFHGHPSRAHHLRQTLPGVLQGTHLSPSLPASAQPRPQSTSLLALGDSSLSSPNPASAHLPWHCAACAMLNEPWAVLCVACDRPRGCKGLGLGTEGPQGTGGLEPDLARGRWACQSCTFENEAAAVLCSICERPRLAQPPSLVVDSRDAGICLQPLQQGDALLASAQSQVWYCIHCTFCNSSPGWVCVMCNRTSSPIPAQHAPRPYASSLEKGPPKPGPPRRLSAPLPSSCGDPEKQRQDKMREEGLQLVSMIREGEAAGACPEEIFSALQYSGTEVPLQWLRSELPYVLEMVAELAGQQDPGLGAFSCQEARRAWLDRHGNLDEAVEECVRTRRRKVQELQSLGFGPEEGSLQALFQHGGDVSRALTELQRQRLEPFRQRLWDSGPEPTPSWDGPDKQSLVRRLLAVYALPSWGRAELALSLLQETPRNYELGDVVEAVRHSQDRAFLRRLLAQECAVCGWALPHNRMQALTSCECTICPDCFRQHFTIALKEKHITDMVCPACGRPDLTDDTQLLSYFSTLDIQLRESLEPDAYALFHKKLTEGVLMRDPKFLWCAQCSFGFIYEREQLEATCPQCHQTFCVRCKRQWEEQHRGRSCEDFQNWKRMNDPEYQAQGLAMYLQENGIDCPKCKFSYALARGGCMHFHCTQCRHQFCSGCYNAFYAKNKCPEPNCRVKKSLHGHHPRDCLFYLRDWTALRLQKLLQDNNVMFNTEPPAGARAVPGGGCRVIEQKEVPNGLRDEACGKETPAGYAGLCQAHYKEYLVSLINAHSLDPATLYEVEELETATERYLHVRPQPLAGEDPPAYQARLLQKLTEEVPLGQSIPRRRK
**Q.** With B2 as the binder, how does the “relative inducible binding (bound/input, normalised to WT)” value read?
**A.** 1 relative to WT
